Test results published in patent US20180037651A1.

Molecular target: GPRC5D (MM.1R cells) (UniProt Q9NZD1)
Assay: FACS cell binding; MM.1R cells

EC50: 0.122 µM
Substance: Fab6300
